experiment: soluble on expression in E. coli; label from the status in PepcDB or PDB records

Sequence | soluble on expression in E. coli
MGSDKIHHHHHHMAELSTRYNPAEIETKWYRYWEEKGYFTPKGVGEKFSIVIPPPNITGRIHMGHALNITLQDIVVRYKRMKGYDVLWVPGEDHAGIATQNAVEKFLLQTQGKTREEIGREKFLEITWEWANKYRREIREQIKALGASVDWTRERFTLDEGLSRAVRKVFVELYRKGLIYRGKYIVNWCPRCKTVLSDEEVEHKEHKSKLYYVKYPVKDSDEYIVVATTRPETMLGDTAVAVHPEDERYKNFVGKTLILPLVGREIPVVADKYVDPKFGTGAVKVTPAHDPNDYLIAQRHNLPMIEIFDDNARINENGGKYKGLDRYEAREKIVKDLEEQGFLVKIEDYTHSVGHCYRCDTVIEPKLSDQWFVSTKPLAKRAIEAVENGEIRFFPERWTKVYLNWMYEIRDWCISRQLWWGHRIPVWYCQDCGHLNVSEEDVEKCEKCGSTNLKQDEDVLDTWFSSALWPFSTLGWPEETEDLKRYYPTDLLVTGFDIIFFWVARMIMMGYEFMNDKPFSHVYIHQLVRDKYGRKMSKSLGNGIDPLEVIDEYGADPMRFTLAILAAQGRDIKLDPRYFDAYKKFANKIWNATRFVLMNLEDYKEVPLENLKTVDKWILTRLNKTVEEVTNALENYDFNIAARTIYNFFWDDFCDWYIEASKPRLKTEERNLVQTVLVKVLDASLRLLHPFMPFLTEELWQKLPVAGESITIAKWPEIERELIDETAEKEFTRLMNMVRGVRNVRAEMNLPQSQRVKVYIKGYEVTEEEELLLKTLGNIEEVSFVNEKPPKTATAYVEEEIEAYVDLGGLIDFEKEKERLKQIMEKIQKEIDRLEKKLANKDFVEKAPEEVVEETKEKLNTNRERLARLESILRDLE | not soluble
MAVIRIKKPRGPGEKDQPLEGEPKLKRIRIKTKVTDEDIKPKPKLKINLKKKKESADGKEKKNSLKLKLNLKKNEEPVKKIHKAPKLRLKPIRIPGEAYDSEASDIEDDPLIESGVILRILPDIQLEFVKNSLESGDYSGISIKWKNERHAVVTINDVMYGAILVDLPTVIEVNKSVDRKNLLKTFDVSQMLLCIRPIQEEEEVYALEAPDTEDLVVKHFEGIEDEIWENKETFLKGYNGAPLSDMEAKHLKEIALKGYDYKHGISPPLYNVRNRRFRRKMDPNEIDYVEKVVDMLLKQDKQAEEVSYDLVDKSELQARQERVSSWENFKEEPGEPLSRPALKKEEIHTIASAVGKQGAEEEGEEGMEEEEEEDLDLGAAFESEEEGSGAEGDKEQQQEEVGDEVDQDTGGEDDDDDDDGDIEAAGGESESDDEKDENRQHTELLADELNELETTLAHTKHKLSKATNPLLKSRFIDSIKKLEKEAELKRKQLQQTEDSVQKQHQHRSDAETANNVEEEEEEEEEEEEEDEVDEDEEDDEENDEDEDNVHEREHIQENKVVRELDEAPAEETLDQNDLDMMMLFGAEGDE | not soluble
MPSMAEIYVKELRERDPATVDTLFLDNAEDGQIGGLTDQLINLEMLSMVKCGLTTLAGFPTLPALTYLDISDNQLGDNASFDVLVKNAPDLKKITLASNKLSLDNLRCLKVLPNLFELDLSNNPSLGLLEDYREKMFEMIPSLKILDGCDVDGEEVEEEFAGEGGEDSEEGSGDEDGPGLSYLEKSQFSDDETDDYAPEGGDAEPRGTKRGASDNGEEPDNKKAAGDDE | soluble
TRNVTWNIGFNATHYRNKISRLAESKKTDIIDGHAGYVNGLYYYGEGLPMYTNYVQKYAGVSEEGKPQWYYTDKQTGEMKTTTTYSQADLYLCGDAVPDLYGGINTSLSFYGFDFSTQINYSIGGQAYDYGYQALMSPPTSTHLGYNVHKDIYKAWSPENTQSDIPQWQFNDLYSVKTSDRFLTNASSISIQNIQLGYTFSKKTLRSLYLTNLRIYVACDNVYYWSKRKGFDSRVTWNGNKDSSGEYSAVRAFSAGLSLQF | not soluble
DERVFEQELENGLRLFIIPKPGFQKTFVTYTTQFGSLDNQFKPLGQDQFVTVPDGVAHFLEHKLFEKEEEDLFTAFAEDNAQANAFTSFDRTSYLFSATDNIENNIKRLLTMVETPYFTKETVDKEKGIIAEEIKMYQEQPGYKLMFNTLRAMYQRHPIRVDIAGSVESIYDITKDDLYLCYETFYHPSNMVLFVVGDVNPEEICRIVKQHEDARNKVNQPKIER | not soluble
MNKRRVKPEHVRREEIVNAAYEVIFEVGLSNTTMAQIAKKAQLSVGIVSHYFGDKQGLINACMLEMLNVLRRKTAQYKAEVQDSHPESMIKAIIDSNFDISQVNQRAMRIWLDFWSASMHMPELSRLQRINDQRLYSNLKFHFLELMPKDQASIAARGLAALIDGLWLRGSLSQDTTFDSTLARSIAYDYVDTQLKLVKQIRQERQNE | not soluble
MGSDKIHHHHHHMHSLTPEYLAALCFDGTQVATLRTLGEYQGKQQLYAAQSPEALKGLRQIAVVESTESSNRLEGVVVAPSRLKSLVIRNATPKSRSEQEIAGYRDALALIHESAAHMPFSEGVVLQLHTLLYRYMPQAGGRWKATNNDIIERHPDGTSRLRFQPVASHLTPMAMADLTGRYATALDQHLADPLVLVPLAMLDLLCIHPFPDGNGRMSRLLTLLLLYHFDYAVGRYISLERIFEETKESYYETLEASSQGWYQGQHDVKPWLDYFWGALLRAYREFEERVGTIERGRGSKGDRVRAEVLGRSLPFSISEIEEACPGVSRDMVRLVLRAMKSEGLIESTGKGRGAKWIKQG | not soluble
MAGRAAVPEVIWSRPERTGRGPRPAYTRADIAAAAVRIADADGLDAVSMRRVAGELGCGTMSLYNYVPRKEDLYELMMDAVSGEHELWEPSGDWRADMIRVAHQTRALMHRHTWLPRLMSPVYGFSPNALRYLEHCLACLDPFEAPYGTKMELVAMVNGVVTTYVANEIATVERTRSLPWSEEQENAARIAYLGRQVASGAYPRLAASFAEDAGPIDLEGVFERALARVLDGFA | not soluble
LNDFAVRVAKSFSKVSEEKKSGSDIQGVFGIGSLENALYTASFAAGGGDYNNFLFNIKKGRADFSNFFNHNSKTFQSLRDIFNSFKPLIDQKGLISNKHFDTPVNNYAKFHQLAFYVSSTARFPYSFAKDNVKRLIIGKRELEVNPKSMFAIKKENGNNGNSNLLGKVALDNNKSIELYENNIPNGKTDAILIKN | soluble
MSLQPVAKTEQPEGGILYDFGKETFGFITLKNLSGKGKIDLYYGESPEEAKDKAYCETLDKLLLEPGQITDLAIRSTSPLHHSDNEYTLENSKAFRYVYITHEPEVQIGEVSMQYEYLPEEYRGNFRCNDEELNCIWEVGAYTMHLTTREFFIDGIKRDRWVWSGDAIQSYLMNYYLFFDSESVKRTIWLLRGKDPVTSHSNTIMDYTFYWFLSVYDYYMYSGDRHFVNQLYPRMQTMMDYVLGRTNKNGMVEGMSGDWVFVDWADGYLDKKGELSFEQVLFCRSLETMALCADLVGDKDGQQKYEKLASALKAKLEPTFWNNQKQAFVHNCVDGRQSDAVTRYANMFSVFFDYLNADKQQAIKQSVLLNDEILKITTPYMRFYELEALCALGEQETVMKEMKAYWGGMLKAGATSFWEKYNPEESGTQHLAMYGRPYGKSLCHAWGASPIYLLGKYYLGVKPTKEGYKEFAVSPVLGGLKWMEGTVPTPNGDIHVYMDNKTIKVKATEGKGYLTIQSREGHHHHHH | not soluble
MLADKVKLSAKEILEKEFKTGVRGYKQEDVDKFLDMIIKDYETFHQEIEELQQENLQLKKQLEEASKKQPVQSNTTNFDILKRLSNLEKHVFGSKLYD | not soluble
MSKEDFVIKPEAAGASTDTSEWPLLLKNFDKLLVRSGHYTPIPAGSSPLKRDLKSYISSGVINLDKPSNPSSHEVVAWIKRILRCEKTGHSGTLDPKVTGCLIVCIDRATRLVKSQQGAGKEYVCIVRLHDALKDEKDLGRSLENLTGALFQRPPLISAVKRQLRVRTIYESNLIEFDNKRNLGVFWASCEAGTYMRTLCVHLGMLLGVGGHMQELRRVRSGALSENDNMVTLHDVMDAQWVYDNTRDESYLRSIIQPLETLLVGYKRIVVKDSAVNAVCYGAKLMIPGLLRYEEGIELYDEIVLITTKGEAIAVAIAQMSTVDLASCDHGVVASVKRCIMERDLYPRRWGLGPVAQKKKQMKADGKLDKYGRVNENTPEQWKKEYVPLDNAEQSTSSSQETKETEEEPKKAKEDSLIKEVETEKEEVKEDDSKKEKKEKKDKKEKKEKKEKKDKKEKKEKKEKKRKSEDGDSEEKKSKKSKK | not soluble

From the DeepSol protein solubility set
